Results on one molecule are retold here after article PMC12395300 (ACS Central Science, 2025).

For the assay, the target named is PD1 (as used in the ELISA) (Mus musculus, UniProt Q02242).
Sequence of PD1 (as used in the ELISA) (Q02242 25-288): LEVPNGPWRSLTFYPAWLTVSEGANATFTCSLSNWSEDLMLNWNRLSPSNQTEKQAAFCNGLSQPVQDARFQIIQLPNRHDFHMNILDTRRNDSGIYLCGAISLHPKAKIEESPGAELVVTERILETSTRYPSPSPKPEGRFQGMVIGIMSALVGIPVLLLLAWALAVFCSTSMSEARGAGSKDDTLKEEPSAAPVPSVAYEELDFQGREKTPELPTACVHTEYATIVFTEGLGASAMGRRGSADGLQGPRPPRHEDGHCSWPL

B1: anti-hPD1 (pembrolizumab) (antibody, V domains shown)
VH: QVQLVQSGVEVKKPGASVKVSCKASGYTFTNYYMYWVRQAPGQGLEWMGGINPSNGGTNFNEKFKNRVTLTTDSSTTTAYMELKSLQFDDTAVYYCARRDYRFDMGFDYWGQGTTVTVSS
VL: EIVLTQSPATLSLSPGERATLSCRASKGVSTSGYSYLHWYQQKPGQAPRLLIYLASYLESGVPARFSGSGSGTDFTLTISSLEPEDFAVYYCQHSRDLPLTFGGGTKVEIK
As for B1, the binding result is recorded as “binds”.
